In the Human Domainome abundance scans (Beltran et al. 2025) one finds abundance fitness data, which are given here for 39 variants.

B1: POU domain, class 3, transcription factor 3, residues 320 to 388; numbered along this chain, P20264 (parent)
chain: DDLEQFAKQFKQRRIKLGFTQADVGLALGTLYGNVFSQTTICRFEALQLSFKNMCKLKPLLNKWLEEAD

± gives the uncertainty stated by the source.

The data set covers variants of B1. As to the kind of experiment: abundance fitness (aPCA) (normalised: wild type 0, dead -1); higher = more abundant; growth selection in yeast, the domain comes from the species named. As to conditions: Homo sapiens.
In the case of DDLEQFAKQFKQRRIKLGFTQADVGLALGTLYGNVFSQTTICRFEALQLSFKNMCKLKPLLNCWLEEAD [K63C], the abundance fitness was -0.147 ± 0.11.

As for DDLEQFAKQFKQRRIKLGFTQADVGLALGTLYGNVFSQTTICRFEALQLSFKNMCKLKPLLNDWLEEAD [K63D], the abundance fitness is -0.349 ± 0.21. In the case of DDLEQFAKQFKQRRIKLGFTQADVGLALGTLYGNVFSQTTICRFEALQLSFKNMCKLKPLLNAWLEEAD [K63A] it was -0.129 ± 0.06.

Consider DDLEQFAKQFKQRRIKLGFTQADVGLALGTLYGNVFSQTTICRFEALQLSFKNMCKLKPLSNKWLEEAD [L61S], for which the abundance fitness was -0.977 ± 0.3. For DDLEQFAKQFKQRRIKLGFTQADVGLALGTLYGNVFSQTTICRFEALQLSFKNMCKLKPLENKWLEEAD [L61E], the abundance fitness was -0.99 ± 0.35. DDLEQFAKQFKQRRIKLGFTQADVGLALGTLYGNVFSQTTICRFEALQLSFKNMCKLKPLCNKWLEEAD [L61C]: the abundance fitness was -0.796 ± 0.37.

Take DDLEQFAKQFKQRRIKLGFTQADVGLALGTLYGNVFSQTTICRFEALQLSFKNMCKLKPLANKWLEEAD [L61A]: the abundance fitness was -0.803 ± 0.21. As for DDLEQFAKQFKQRRIKLGFTQADVGLALGTLYGNVFSQTTICRFEALQLSFKNMCKLKPLRNKWLEEAD [L61R], the abundance fitness is -0.97 ± 0.17. Consider DDLEQFAKQFKQRRIKLGFTQADVGLALGTLYGNVFSQTTICRFEALQLSFKNMCKLKPLPNKWLEEAD [L61P], for which the abundance fitness was -0.928 ± 0.25. As to DDLEQFAKQFKQRRIKLGFTQADVGLALGTLYGNVFSQTTICRFEALQLSFKNMCKLKPLVNKWLEEAD [L61V], the abundance fitness was -0.513 ± 0.11. In the case of DDLEQFAKQFKQRRIKLGFTQADVGLALGTLYGNVFSQTTICRFEALQLSFKNMCKLKPLQNKWLEEAD [L61Q] it was -0.811 ± 0.27; in that of DDLEQFAKQFKQRRIKLGFTQADVGLALGTLYGNVFSQTTICRFEALQLSFKNMCKLKPLGNKWLEEAD [L61G], -0.891 ± 0.17; in that of DDLEQFAKQFKQRRIKLGFTQADVGLALGTLYGNVFSQTTICRFEALQLSFKNMCKLKPLMNKWLEEAD [L61M], -0.522 ± 0.14. As to DDLEQFAKQFKQRRIKLGFTQADVGLALGTLYGNVFSQTTICRFEALQLSFKNMCKLKPLKNKWLEEAD [L61K], the abundance fitness is -0.66 ± 0.39. In the case of DDLEQFAKQFKQRRIKLGFTQADVGLALGTLYGNVFSQTTICRFEALQLSFKNMCKLKPLTNKWLEEAD [L61T] it was -0.513 ± 0.25; in that of DDLEQFAKQFKQRRIKLGFTQADVGLALGTLYGNVFSQTTICRFEALQLSFKNMCKLKPLINKWLEEAD [L61I], -0.696 ± 0.23; in that of DDLEQFAKQFKQRRIKLGFTQADVGLALGTLYGNVFSQTTICRFEALQLSFKNMCKLKPLWNKWLEEAD [L61W], -0.881 ± 0.24. In the case of DDLEQFAKQFKQRRIKLGFTQADVGLALGTLYGNVFSQTTICRFEALQLSFKNMCKLKPSLNKWLEEAD [L60S] it was -0.563 ± 0.33; in that of DDLEQFAKQFKQRRIKLGFTQADVGLALGTLYGNVFSQTTICRFEALQLSFKNMCKLKPRLNKWLEEAD [L60R], -0.491 ± 0.47; in that of DDLEQFAKQFKQRRIKLGFTQADVGLALGTLYGNVFSQTTICRFEALQLSFKNMCKLKPWLNKWLEEAD [L60W], -0.227 ± 0.26. DDLEQFAKQFKQRRIKLGFTQADVGLALGTLYGNVFSQTTICRFEALQLSFKNMCKLKPALNKWLEEAD [L60A]: the abundance fitness is -0.51 ± 0.46.

Turning to DDLEQFAKQFKQRRIKLGFTQADVGLALGTLYGNVFSQTTICRFEALQLSFKNMCKLKPKLNKWLEEAD [L60K], the abundance fitness was -0.334 ± 0.22. As to DDLEQFAKQFKQRRIKLGFTQADVGLALGTLYGNVFSQTTICRFEALQLSFKNMCKLKPVLNKWLEEAD [L60V], the abundance fitness is -0.309 ± 0.17. Consider DDLEQFAKQFKQRRIKLGFTQADVGLALGTLYGNVFSQTTICRFEALQLSFKNMCKLKPLLGKWLEEAD [N62G], for which the abundance fitness stood at 0.052 ± 0.067. In the case of DDLEQFAKQFKQRRIKLGFTQADVGLALGTLYGNVFSQTTICRFEALQLSFKNMCKLKPLLHKWLEEAD [N62H] it was 0.11 ± 0.23; in that of DDLEQFAKQFKQRRIKLGFTQADVGLALGTLYGNVFSQTTICRFEALQLSFKNMCKLKPLLLKWLEEAD [N62L], -0.126 ± 0.083. Turning to DDLEQFAKQFKQRRIKLGFTQADVGLALGTLYGNVFSQTTICRFEALQLSFKNMCKLKPLLVKWLEEAD [N62V], the abundance fitness turned out to be 0.148 ± 0.076. In the case of DDLEQFAKQFKQRRIKLGFTQADVGLALGTLYGNVFSQTTICRFEALQLSFKNMCKLKPLLKKWLEEAD [N62K] it was -0.12 ± 0.26; in that of DDLEQFAKQFKQRRIKLGFTQADVGLALGTLYGNVFSQTTICRFEALQLSFKNMCKLKPLLRKWLEEAD [N62R], -0.063 ± 0.076; in that of DDLEQFAKQFKQRRIKLGFTQADVGLALGTLYGNVFSQTTICRFEALQLSFKNMCKLKPLLWKWLEEAD [N62W], -0.739 ± 0.27. On to DDLEQFAKQFKQRRIKLGFTQADVGLALGTLYGNVFSQTTICRFEALQLSFKNMCKLKPLLQKWLEEAD [N62Q], for which the abundance fitness is -0.028 ± 0.11. Under DDLEQFAKQFKQRRIKLGFTQADVGLALGTLYGNVFSQTTICRFEALQLSFKNMCKLKPLLAKWLEEAD [N62A] stands 0.001 ± 0.084; under DDLEQFAKQFKQRRIKLGFTQADVGLALGTLYGNVFSQTTICRFEALQLSFKNMCKLKPLLSKWLEEAD [N62S], 0.03 ± 0.046.

Turning to DDLEQFAKQFKQRRIKLGFTQADVGLALGTLYGNVFSQTTICRFEALQLSFKNMCKLKPLLDKWLEEAD [N62D], the abundance fitness worked out at 0.024 ± 0.24. With DDLEQFAKQFKQRRIKLGFTQADVGLALGTLYGNVFSQTTICRFEALQLSFKNMCKLKWLLNKWLEEAD [P59W], the abundance fitness is -0.986 ± 0.35.

Consider DDLEQFAKQFKQRRIKLGFTQADVGLALGTLYGNVFSQTTICRFEALQLSFKNMCKLKTLLNKWLEEAD [P59T], for which the abundance fitness is -0.459 ± 0.2. Under DDLEQFAKQFKQRRIKLGFTQADVGLALGTLYGNVFSQTTICRFEALQLSFKNMCKLKRLLNKWLEEAD [P59R] stands -0.389 ± 0.084. Under DDLEQFAKQFKQRRIKLGFTQADVGLALGTLYGNVFSQTTICRFEALQLSFKNMCKLKSLLNKWLEEAD [P59S] stands -0.398 ± 0.16; under DDLEQFAKQFKQRRIKLGFTQADVGLALGTLYGNVFSQTTICRFEALQLSFKNMCKLKVLLNKWLEEAD [P59V], -0.377 ± 0.13.
